± gives the standard deviation of the averaged measurements.
Columns and labels:
Saccharomyces cerevisiae [1] = assay: protein stability index of tFT-peptide fusion (C-terminal peptide) (PSI (0-1 scale)); higher = more stable (slower turnover); details: genetic background: wild type; temperature: 30 C
Saccharomyces cerevisiae [2] = assay: as above
Method: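 MPS profiling in S. cerevisiae of the tFT-X12 degron library: putative degron peptides plus stable controls, 12 aa, fused to the C-terminus of a sfGFP-mCherry timer. Cells are FACS-sorted into 8 mCherry/sfGFP bins and deep-sequenced. PSI runs from 0 (unstable) to 1 (stable). Backgrounds are wild type, das1Δ and doa10Δ at 30 °C, and wild type, das1Δ, cdc34-1 and cdc53-1 at 37 °C; 2-3 technical replicates each.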

[3] = genetic background: cdc34-1, temperature: 37 C
[4] = genetic background: cdc53-1, temperature: 37 C
[5] = genetic background: das1 deletion, temperature: 30 C
[6] = genetic background: das1 deletion, temperature: 37 C
[7] = genetic background: doa10 deletion, temperature: 30 C
[8] = genetic background: wild type, temperature: 30 C
[9] = genetic background: wild type, temperature: 37 C
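Further: PSI is a weighted mean of sequencing reads over stability bins, variants kept only with over 10 reads, mCherry proximal and sfGFP distal, peptide attached via GGGS linker.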

Sequence	protein stability index (Saccharomyces cerevisiae [1])	protein stability index (Saccharomyces cerevisiae [2]; [3])	protein stability index (Saccharomyces cerevisiae [2]; [4])	protein stability index (Saccharomyces cerevisiae [2]; [5])	protein stability index (Saccharomyces cerevisiae [2]; [6])	protein stability index (Saccharomyces cerevisiae [2]; [7])	protein stability index (Saccharomyces cerevisiae [2]; [8])	protein stability index (Saccharomyces cerevisiae [2]; [9])
DILQITNIKQKR	0.572 ± 0.16	0.71 ± 0.041	0.741 ± 0.015	0.676 ± 0.038	0.731 ± 0.021	0.654 ± 0.014	0.654 ± 0.014	0.722 ± 0.039
SFFFSFFPYFFC	0.4425 ± 0.0029	0.6386 ± 0.0014	0.675 ± 0.02	0.606 ± 0.06	0.732 ± 0.023	0.401 ± 0.012	0.394 ± 0.017	0.561 ± 0.015
FLIYMFRHCFFH	0.345 ± 0.029	0.537 ± 0.071	0.626 ± 0.034	0.593 ± 0.015	0.676 ± 0.039	0.268 ± 0.013	0.278 ± 0.028	0.393 ± 0.018
CGILACSVCTFF	0.509 ± 0.021	0.547 ± 0.071	0.6516 ± 0.0037	0.427 ± 0.027	0.6336 ± 0.0037	0.405 ± 0.016	0.436 ± 0.024	0.61 ± 0.023
LVFGFSLILRVG	0.2132 ± 0.00073	0.168 ± 0.025	0.203 ± 0.0096	0.272 ± 0.054	0.356 ± 0.016	0.139 ± 0.016	0.128 ± 0.0069	0.234 ± 0.018
LLLFSFAALANF	0.347 ± 0.0064	0.539 ± 0.059	0.545 ± 0.017	0.398 ± 0.022	0.5592 ± 0.0013	0.245 ± 0.0066	0.283 ± 0.018	0.466 ± 0.02
WCAMITVFCGSG	0.34 ± 0.016	0.268 ± 0.035	0.29 ± 0.041	0.214 ± 0.037	0.4101 ± 0.0027	0.179 ± 0.015	0.208 ± 0.033	0.3796 ± 0.0026
YFWWLWMSFWVG	0.4702 ± 0.0044	0.4935 ± 0.0028	0.53 ± 0.011	0.43 ± 0.023	0.59 ± 0.066	0.419 ± 0.022	0.403 ± 0.015	0.539 ± 0.013
WSCFLLLLSLSL	0.45 ± 0.0067	0.424 ± 0.056	0.4452 ± 0.0035	0.417 ± 0.039	0.5236 ± 0.0051	0.482 ± 0.013	0.411 ± 0.011	0.496 ± 0.011
WLGLFAFRRCLV	0.31 ± 0.018	0.544 ± 0.03	0.583 ± 0.013	0.463 ± 0.018	0.5898 ± 0.0041	0.194 ± 0.012	0.223 ± 0.025	0.3983 ± 0.0017
VFLVRTVTQISA	0.304 ± 0.017	0.289 ± 0.02	0.371 ± 0.033	0.291 ± 0.025	0.445 ± 0.015	0.219 ± 0.0079	0.254 ± 0.028	0.397 ± 0.016
GLIICRRCLWCC	0.267 ± 0.05	0.49 ± 0.01	0.527 ± 0.029	0.36 ± 0.031	0.5909 ± 0.00095	0.1721 ± 0.00088	0.182 ± 0.021	0.255 ± 0.01
SSMSAVFRLQVC	0.276 ± 0.017	0.567 ± 0.0096	0.657 ± 0.0093	0.613 ± 0.017	0.662 ± 0.0092	0.228 ± 0.001	0.232 ± 0.015	0.299 ± 0.049
ASGFLVIPLWVF	0.294 ± 0.019	0.41 ± 0.0072	0.4653 ± 0.0021	0.323 ± 0.029	0.491 ± 0.022	0.17 ± 0.0047	0.19 ± 0.018	0.255 ± 0.0083
YCAAVCFWGLYC	0.242 ± 0.024	0.522 ± 0.015	0.654 ± 0.023	0.541 ± 0.029	0.668 ± 0.012	0.13 ± 0.0034	0.154 ± 0.013	0.233 ± 0.011
AGGGGRFWVCVG	0.364 ± 0.11	0.656 ± 0.027	0.7348 ± 0.0059	0.6377 ± 0.0058	0.726 ± 0.02	0.215 ± 0.00078	0.258 ± 0.028	0.5539 ± 0.0019
FCLMLWGAVLFL	0.314 ± 0.025	0.216 ± 0.014	0.29 ± 0.0077	0.235 ± 0.019	0.364 ± 0.047	0.226 ± 0.015	0.223 ± 0.03	0.33 ± 0.0042
FGKGRSLLLVFS	0.475 ± 0.016	0.548 ± 0.02	0.597 ± 0.022	0.378 ± 0.044	0.582 ± 0.0092	0.347 ± 0.015	0.395 ± 0.013	0.5765 ± 0.0039
SLLFVFVSVGCI	0.253 ± 0.016	0.0483 ± 0.0074	0.147 ± 0.0097	0.148 ± 0.03	0.246 ± 0.035	0.116 ± 0.0038	0.148 ± 0.025	0.166 ± 0.023
KVALWRRGVLAA	0.231 ± 0.007	0.363 ± 0.028	0.387 ± 0.013	0.257 ± 0.037	0.476 ± 0.011	0.142 ± 0.0064	0.161 ± 0.02	0.286 ± 0.0099

Sequence	protein stability index (Saccharomyces cerevisiae [1])	protein stability index (Saccharomyces cerevisiae [2]; [3])	protein stability index (Saccharomyces cerevisiae [2]; [4])	protein stability index (Saccharomyces cerevisiae [2]; [5])	protein stability index (Saccharomyces cerevisiae [2]; [6])	protein stability index (Saccharomyces cerevisiae [2]; [7])	protein stability index (Saccharomyces cerevisiae [2]; [8])	protein stability index (Saccharomyces cerevisiae [2]; [9])
FCASCLVCFIYL	0.462 ± 0.023	0.492 ± 0.0074	0.501 ± 0.0053	0.426 ± 0.024	0.5207 ± 0.0051	0.444 ± 0.026	0.421 ± 0.031	0.517 ± 0.019
SFWLFSSIGVCF	0.512 ± 0.019	0.594 ± 0.035	0.5958 ± 0.004	0.461 ± 0.031	0.578 ± 0.017	0.4316 ± 0.00081	0.465 ± 0.011	0.5772 ± 0.0052
GLFVGCWVFLVL	0.387 ± 0.061	0.344 ± 0.0095	0.445 ± 0.0049	0.307 ± 0.044	0.525 ± 0.012	0.294 ± 0.0069	0.297 ± 0.037	0.486 ± 0.015
PATPPLRFPPSA	0.409 ± 0.0081	0.702 ± 0.032	0.7349 ± 0.0039	0.648 ± 0.01	0.7356 ± 0.0028	0.67 ± 0.033	0.668 ± 0.012	0.7075 ± 0.0036
WCAVRVWFGAAL	0.505 ± 0.014	0.648 ± 0.052	0.676 ± 0.028	0.5731 ± 0.0039	0.693 ± 0.017	0.3927 ± 0.0016	0.424 ± 0.01	0.56132 ± 0.00042
VTGFGVAIVCVT	0.369 ± 0.084	0.263 ± 0.021	0.292 ± 0.0042	0.254 ± 0.044	0.3722 ± 0.0024	0.191 ± 0.0072	0.241 ± 0.033	0.364 ± 0.015
SRLVIGRWSVLV	0.318 ± 0.019	0.567 ± 0.045	0.617 ± 0.016	0.492 ± 0.03	0.6346 ± 0.0035	0.177 ± 0.013	0.217 ± 0.034	0.442 ± 0.0031
WHVSLRFAFYVF	0.22 ± 0.12	0.2459 ± 0.0022	0.326 ± 0.02	0.235 ± 0.019	0.342 ± 0.011	0.136 ± 0.0056	0.158 ± 0.018	0.263 ± 0.0032
LPLCGLLLFLFF	0.435 ± 0.0059	0.472 ± 0.024	0.5394 ± 0.0043	0.433 ± 0.024	0.5302 ± 0.0025	0.42 ± 0.024	0.42 ± 0.015	0.492 ± 0.022
FPRQFVYLPLLF	0.487 ± 0.011	0.647 ± 0.064	0.709 ± 0.025	0.555 ± 0.011	0.696 ± 0.017	0.372 ± 0.018	0.402 ± 0.032	0.595 ± 0.02
VAWCVWCWWWAV	0.131 ± 0.047	0.188 ± 0.0033	0.322 ± 0.0061	0.209 ± 0.021	0.351 ± 0.0049	0.06 ± 0.016	0.0674 ± 0.015	0.0852 ± 0.013
DGGHLVGHDLFY	0.727 ± 0.024	0.716 ± 0.023	0.747 ± 0.023	0.656 ± 0.023	0.758 ± 0.032	0.657 ± 0.016	0.664 ± 0.053	0.78 ± 0.0091
KLALVYLLIRGL	0.125 ± 0.06	0.423 ± 0.015	0.496 ± 0.028	0.366 ± 0.031	0.5681 ± 0.00085	0.0641 ± 0.01	0.0862 ± 0.02	0.0975 ± 0.0076
RGWGGGTWVKMG	0.3012 ± 0.0016	0.592 ± 0.011	0.72324 ± 0.00012	0.664 ± 0.018	0.767 ± 0.013	0.113 ± 0.019	0.121 ± 0.015	0.203 ± 0.004
VLGARWHWIYIA	0.111 ± 0.024	0.281 ± 0.071	0.526 ± 0.0082	0.501 ± 0.014	0.6636 ± 0.0012	0.0782 ± 0.011	0.078 ± 0.023	0.06742 ± 0.00037
LFWPPCYLFFCL	0.389 ± 0.031	0.446 ± 0.034	0.508 ± 0.052	0.473 ± 0.039	0.677 ± 0.045	0.393 ± 0.03	0.324 ± 0.027	0.437 ± 0.024
LLVSVVFVSRFF	0.387 ± 0.053	0.378 ± 0.024	0.465 ± 0.075	0.272 ± 0.038	0.514 ± 0.0092	0.213 ± 0.0049	0.251 ± 0.035	0.444 ± 0.006
VFFLFAVCSVLV	0.152 ± 0.02	0.0858 ± 0.0079	0.18 ± 0.0095	0.106 ± 0.029	0.2738 ± 0.0011	0.0641 ± 0.0032	0.0857 ± 0.033	0.248 ± 0.04
PPRSRPLLRPLP	0.746 ± 0.021	0.699 ± 0.0037	0.726 ± 0.012	0.666 ± 0.022	0.7139 ± 0.0036	0.684 ± 0.033	0.684 ± 0.022	0.708 ± 0.025

From the supplement of paper PMC10724198
